{
  "source": "patent US20140072613A1",
  "about": "(published 2014)",
  "binders": {"B1": {"name": "MMI-0300 (peptide)", "peptide": "FAKLAARLYRKALARQLGVAA"}, "B2": {"name": "MMI-0400 (peptide)", "peptide": "KAFAKLAARLYRKALARQLGVAA"}},
  "test_in_all_cases": "cell-based or functional assay",
  "key": {"[1]": {"target": "Met(D1246N)(h) (human, UniProt P08581-2 974-1408, limits assumed)"}, "[2]": {"target": "T1, ARK5(h) (human, UniProt O60285 1-661, limits assumed)", "T1 sequence (looked up)": "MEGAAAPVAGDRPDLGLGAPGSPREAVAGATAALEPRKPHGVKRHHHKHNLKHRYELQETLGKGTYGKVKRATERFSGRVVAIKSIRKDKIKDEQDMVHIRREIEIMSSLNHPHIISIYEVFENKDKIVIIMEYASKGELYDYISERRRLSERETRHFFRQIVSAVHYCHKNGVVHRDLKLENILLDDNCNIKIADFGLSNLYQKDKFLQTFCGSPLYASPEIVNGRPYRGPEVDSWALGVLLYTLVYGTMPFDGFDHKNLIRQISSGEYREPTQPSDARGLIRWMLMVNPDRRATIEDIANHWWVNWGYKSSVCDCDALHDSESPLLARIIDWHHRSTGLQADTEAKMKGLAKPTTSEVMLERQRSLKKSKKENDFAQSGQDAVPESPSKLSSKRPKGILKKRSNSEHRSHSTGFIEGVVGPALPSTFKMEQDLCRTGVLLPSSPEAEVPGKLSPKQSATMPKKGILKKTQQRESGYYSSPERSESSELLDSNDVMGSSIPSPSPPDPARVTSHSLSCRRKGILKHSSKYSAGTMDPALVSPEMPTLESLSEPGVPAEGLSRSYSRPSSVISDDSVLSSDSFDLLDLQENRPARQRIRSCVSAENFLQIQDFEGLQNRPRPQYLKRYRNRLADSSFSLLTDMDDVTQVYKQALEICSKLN"}, "[3]": {"target": "Pyk2 (h) (human, UniProt Q14289 1-1009, limits assumed)", "sequence (Q14289 whole entry)": "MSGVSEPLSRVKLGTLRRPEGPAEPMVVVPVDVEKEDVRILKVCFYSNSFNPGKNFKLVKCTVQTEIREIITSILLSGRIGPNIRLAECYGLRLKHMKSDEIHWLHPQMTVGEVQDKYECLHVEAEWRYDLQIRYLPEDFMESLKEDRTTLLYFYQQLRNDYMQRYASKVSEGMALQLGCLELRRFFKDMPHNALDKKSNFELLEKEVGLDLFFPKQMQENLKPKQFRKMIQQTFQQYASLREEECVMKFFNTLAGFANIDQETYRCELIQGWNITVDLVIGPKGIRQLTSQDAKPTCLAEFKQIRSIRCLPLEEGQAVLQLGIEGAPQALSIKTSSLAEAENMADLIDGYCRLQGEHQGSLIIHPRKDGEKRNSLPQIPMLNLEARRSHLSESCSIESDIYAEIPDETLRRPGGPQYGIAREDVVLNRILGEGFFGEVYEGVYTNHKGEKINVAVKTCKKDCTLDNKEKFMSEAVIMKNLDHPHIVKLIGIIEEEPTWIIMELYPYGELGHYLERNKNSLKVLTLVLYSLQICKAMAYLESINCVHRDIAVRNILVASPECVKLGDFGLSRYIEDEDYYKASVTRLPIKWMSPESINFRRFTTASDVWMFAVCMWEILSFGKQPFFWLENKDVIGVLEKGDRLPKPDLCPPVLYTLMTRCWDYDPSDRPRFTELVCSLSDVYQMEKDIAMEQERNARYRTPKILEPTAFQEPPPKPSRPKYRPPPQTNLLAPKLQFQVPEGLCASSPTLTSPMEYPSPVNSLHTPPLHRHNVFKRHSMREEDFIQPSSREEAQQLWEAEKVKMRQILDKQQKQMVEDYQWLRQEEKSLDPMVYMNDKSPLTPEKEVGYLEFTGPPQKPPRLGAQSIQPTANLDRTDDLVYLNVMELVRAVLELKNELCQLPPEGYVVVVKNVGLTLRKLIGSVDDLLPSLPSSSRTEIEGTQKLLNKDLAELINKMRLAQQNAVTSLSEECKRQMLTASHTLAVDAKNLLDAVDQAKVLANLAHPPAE"}, "[4]": {"target": "NEK6(h) (human, UniProt Q9HC98 1-313)", "sequence (Q9HC98 whole entry)": "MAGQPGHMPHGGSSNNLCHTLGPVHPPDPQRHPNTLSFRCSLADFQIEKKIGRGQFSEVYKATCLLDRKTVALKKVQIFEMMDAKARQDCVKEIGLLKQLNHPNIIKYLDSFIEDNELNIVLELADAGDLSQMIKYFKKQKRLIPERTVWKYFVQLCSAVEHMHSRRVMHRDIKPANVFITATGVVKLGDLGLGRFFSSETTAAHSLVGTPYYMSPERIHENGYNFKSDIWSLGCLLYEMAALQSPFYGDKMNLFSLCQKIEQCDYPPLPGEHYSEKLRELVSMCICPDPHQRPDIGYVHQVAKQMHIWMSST"}, "[5]": {"target": "T2, CaMKIV(h) (human, UniProt Q16566 1-473)", "T2 sequence (looked up)": "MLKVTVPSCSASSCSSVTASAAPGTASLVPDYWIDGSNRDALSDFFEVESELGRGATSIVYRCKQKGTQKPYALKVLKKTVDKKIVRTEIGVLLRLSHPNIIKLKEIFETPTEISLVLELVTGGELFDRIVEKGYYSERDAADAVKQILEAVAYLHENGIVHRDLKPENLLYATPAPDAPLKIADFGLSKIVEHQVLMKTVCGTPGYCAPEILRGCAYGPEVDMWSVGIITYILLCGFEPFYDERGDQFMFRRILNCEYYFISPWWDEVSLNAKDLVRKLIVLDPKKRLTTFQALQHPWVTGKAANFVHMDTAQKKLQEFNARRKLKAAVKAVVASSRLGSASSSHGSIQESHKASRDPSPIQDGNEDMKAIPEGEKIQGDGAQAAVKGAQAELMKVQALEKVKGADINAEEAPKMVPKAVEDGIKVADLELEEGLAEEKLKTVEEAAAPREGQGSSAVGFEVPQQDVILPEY"}, "[6]": {"target": "TrkA(h) (human, UniProt P04629 441-796, limits assumed)", "sequence (P04629 441-796 limits assumed)": "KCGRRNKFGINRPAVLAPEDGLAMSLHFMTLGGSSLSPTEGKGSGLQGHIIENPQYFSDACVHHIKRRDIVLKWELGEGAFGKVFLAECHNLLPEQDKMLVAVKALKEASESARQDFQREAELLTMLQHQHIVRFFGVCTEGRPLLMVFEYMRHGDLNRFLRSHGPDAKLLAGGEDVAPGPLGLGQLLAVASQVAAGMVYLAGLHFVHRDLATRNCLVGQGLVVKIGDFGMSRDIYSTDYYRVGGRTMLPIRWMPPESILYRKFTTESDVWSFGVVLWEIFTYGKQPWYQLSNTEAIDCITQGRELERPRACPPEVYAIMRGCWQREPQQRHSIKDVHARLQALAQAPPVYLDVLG"}, "[7]": {"target": "GRK6(h) (human, UniProt P43250 1-576)", "sequence (P43250 whole entry)": "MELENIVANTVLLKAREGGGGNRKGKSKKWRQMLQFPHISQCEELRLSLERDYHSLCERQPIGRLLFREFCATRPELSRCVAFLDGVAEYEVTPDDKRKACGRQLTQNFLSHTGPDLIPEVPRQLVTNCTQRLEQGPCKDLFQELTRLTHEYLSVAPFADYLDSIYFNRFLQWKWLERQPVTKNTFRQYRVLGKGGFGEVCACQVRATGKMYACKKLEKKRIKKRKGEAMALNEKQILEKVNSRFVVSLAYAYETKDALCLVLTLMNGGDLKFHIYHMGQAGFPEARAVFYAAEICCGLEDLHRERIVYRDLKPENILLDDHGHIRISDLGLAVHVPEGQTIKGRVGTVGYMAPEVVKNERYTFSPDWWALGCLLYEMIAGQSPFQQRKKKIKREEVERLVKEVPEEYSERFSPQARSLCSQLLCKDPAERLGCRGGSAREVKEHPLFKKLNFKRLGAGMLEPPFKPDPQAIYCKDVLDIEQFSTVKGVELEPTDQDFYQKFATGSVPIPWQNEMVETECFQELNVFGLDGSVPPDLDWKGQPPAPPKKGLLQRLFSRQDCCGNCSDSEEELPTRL"}, "[8]": {"target": "MARK1(h) (human, UniProt Q9P0L2 1-795, limits assumed)", "sequence (Q9P0L2 whole entry)": "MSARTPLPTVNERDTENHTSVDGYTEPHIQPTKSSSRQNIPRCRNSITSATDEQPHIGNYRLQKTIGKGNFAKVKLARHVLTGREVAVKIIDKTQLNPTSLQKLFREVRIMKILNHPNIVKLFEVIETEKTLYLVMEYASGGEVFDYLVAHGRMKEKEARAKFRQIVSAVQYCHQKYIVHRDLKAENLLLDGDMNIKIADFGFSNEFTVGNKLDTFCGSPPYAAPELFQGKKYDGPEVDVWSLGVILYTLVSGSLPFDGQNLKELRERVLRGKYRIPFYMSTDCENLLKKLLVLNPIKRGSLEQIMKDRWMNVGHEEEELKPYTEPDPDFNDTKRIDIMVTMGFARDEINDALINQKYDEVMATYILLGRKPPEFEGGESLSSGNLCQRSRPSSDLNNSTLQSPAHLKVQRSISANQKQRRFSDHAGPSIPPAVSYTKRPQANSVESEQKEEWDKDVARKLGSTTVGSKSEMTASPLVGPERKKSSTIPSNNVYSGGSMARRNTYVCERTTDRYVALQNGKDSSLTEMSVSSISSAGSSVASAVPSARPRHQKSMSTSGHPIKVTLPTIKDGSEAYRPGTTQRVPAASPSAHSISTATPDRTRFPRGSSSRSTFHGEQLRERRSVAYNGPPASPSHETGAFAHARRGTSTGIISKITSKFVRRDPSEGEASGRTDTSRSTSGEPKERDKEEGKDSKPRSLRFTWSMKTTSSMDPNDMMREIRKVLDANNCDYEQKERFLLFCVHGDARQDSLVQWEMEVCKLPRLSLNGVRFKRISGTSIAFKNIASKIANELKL"}, "[9]": {"target": "T3, Fms(Y969C)(h) (human, UniProt P07333 538-972, limits assumed)", "T3 sequence (looked up)": "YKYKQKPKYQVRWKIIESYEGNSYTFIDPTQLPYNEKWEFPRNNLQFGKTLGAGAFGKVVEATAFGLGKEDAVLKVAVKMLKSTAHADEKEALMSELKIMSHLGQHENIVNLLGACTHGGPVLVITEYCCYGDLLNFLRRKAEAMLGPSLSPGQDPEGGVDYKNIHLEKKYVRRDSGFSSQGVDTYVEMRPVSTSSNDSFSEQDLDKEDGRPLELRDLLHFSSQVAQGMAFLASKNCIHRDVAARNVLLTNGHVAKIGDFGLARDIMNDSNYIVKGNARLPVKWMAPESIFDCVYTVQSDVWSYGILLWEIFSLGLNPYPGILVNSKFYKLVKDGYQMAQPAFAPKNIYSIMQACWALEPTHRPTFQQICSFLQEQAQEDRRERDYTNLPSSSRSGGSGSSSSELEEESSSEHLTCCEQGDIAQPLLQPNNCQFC"}, "[10]": {"target": "Rsk4(h) (human, UniProt Q9UK32 1-745, limits assumed)", "sequence (Q9UK32 whole entry)": "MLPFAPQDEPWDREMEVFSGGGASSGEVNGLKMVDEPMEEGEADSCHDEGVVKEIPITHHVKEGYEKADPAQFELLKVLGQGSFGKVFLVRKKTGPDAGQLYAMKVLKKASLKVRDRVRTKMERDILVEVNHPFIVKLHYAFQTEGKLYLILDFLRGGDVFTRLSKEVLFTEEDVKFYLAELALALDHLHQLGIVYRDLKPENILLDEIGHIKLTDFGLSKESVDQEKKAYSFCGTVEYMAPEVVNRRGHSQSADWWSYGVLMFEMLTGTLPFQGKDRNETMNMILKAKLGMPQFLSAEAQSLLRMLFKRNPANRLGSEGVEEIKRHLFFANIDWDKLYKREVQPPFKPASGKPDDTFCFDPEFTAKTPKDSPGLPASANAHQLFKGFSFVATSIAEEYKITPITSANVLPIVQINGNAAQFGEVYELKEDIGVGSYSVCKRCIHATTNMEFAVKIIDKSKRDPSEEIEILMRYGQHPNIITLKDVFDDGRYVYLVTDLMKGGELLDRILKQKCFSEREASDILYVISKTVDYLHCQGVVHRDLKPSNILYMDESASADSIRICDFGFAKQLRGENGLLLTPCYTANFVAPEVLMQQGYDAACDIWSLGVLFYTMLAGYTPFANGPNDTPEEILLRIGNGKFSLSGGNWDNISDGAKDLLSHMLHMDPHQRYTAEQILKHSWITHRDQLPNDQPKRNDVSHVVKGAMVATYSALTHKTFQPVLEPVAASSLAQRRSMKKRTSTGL"}, "[11]": {"target": "MLK1(h) (human, UniProt P80192 132-413, limits assumed)", "sequence (P80192 132-413 limits assumed)": "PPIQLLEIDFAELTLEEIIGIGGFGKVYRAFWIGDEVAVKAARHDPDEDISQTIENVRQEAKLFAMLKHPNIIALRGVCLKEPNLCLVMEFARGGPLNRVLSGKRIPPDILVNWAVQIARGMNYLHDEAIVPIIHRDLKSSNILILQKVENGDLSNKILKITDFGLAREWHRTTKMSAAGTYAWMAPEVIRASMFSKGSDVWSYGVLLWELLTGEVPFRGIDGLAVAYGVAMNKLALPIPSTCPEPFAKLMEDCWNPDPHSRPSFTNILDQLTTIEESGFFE"}, "[12]": {"target": "Plk3(h) (human, UniProt Q9H4B4 58-340, limits assumed)", "sequence (Q9H4B4 58-340 limits assumed)": "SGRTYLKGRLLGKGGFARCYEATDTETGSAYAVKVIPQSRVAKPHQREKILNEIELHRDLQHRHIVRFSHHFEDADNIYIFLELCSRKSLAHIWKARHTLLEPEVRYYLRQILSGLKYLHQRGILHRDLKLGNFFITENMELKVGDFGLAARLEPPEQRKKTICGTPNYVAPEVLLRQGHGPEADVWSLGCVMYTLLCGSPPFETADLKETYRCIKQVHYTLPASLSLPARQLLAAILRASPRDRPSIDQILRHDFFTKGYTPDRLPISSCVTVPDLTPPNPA"}, "[13]": {"target": "T4, SAPK4(h) (human, UniProt O15264 1-365)", "T4 sequence (looked up)": "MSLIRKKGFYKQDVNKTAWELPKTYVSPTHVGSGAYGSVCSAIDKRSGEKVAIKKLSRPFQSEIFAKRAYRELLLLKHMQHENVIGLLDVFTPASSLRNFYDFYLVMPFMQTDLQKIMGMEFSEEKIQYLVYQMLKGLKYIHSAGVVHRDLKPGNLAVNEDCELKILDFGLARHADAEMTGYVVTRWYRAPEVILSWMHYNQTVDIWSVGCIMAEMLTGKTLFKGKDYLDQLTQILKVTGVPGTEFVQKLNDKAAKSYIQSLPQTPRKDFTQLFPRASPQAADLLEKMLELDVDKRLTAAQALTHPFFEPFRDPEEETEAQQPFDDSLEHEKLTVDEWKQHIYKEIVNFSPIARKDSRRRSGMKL"}, "[14]": {"target": "MLCK(h) (human)"}},
  "data": [
    {"binder": "B1", "values": [
      {"measurement": "% activity, 100 µM", "setting": "[1]", "value": 82, "unit": "%"},
      {"measurement": "% activity, 100 µM", "setting": "[2]", "value": 78, "unit": "%"},
      {"measurement": "% activity, 100 µM", "setting": "[3]", "value": 47, "unit": "%"},
      {"measurement": "% activity, 100 µM", "setting": "[4]", "value": 82, "unit": "%"},
      {"measurement": "% activity, 100 µM", "setting": "[5]", "value": 17, "unit": "%"},
      {"measurement": "% activity, 100 µM", "setting": "[6]", "value": 25, "unit": "%"},
      {"measurement": "% activity, 100 µM", "setting": "[7]", "value": 147, "unit": "%"},
      {"measurement": "% activity, 100 µM", "setting": "[8]", "value": 132, "unit": "%"},
      {"measurement": "% activity, 100 µM", "setting": "[9]", "value": 72, "unit": "%"},
      {"measurement": "% activity, 100 µM", "setting": "[10]", "value": 90, "unit": "%"},
      {"measurement": "% activity, 100 µM", "setting": "[11]", "value": 40, "unit": "%"},
      {"measurement": "% activity, 100 µM", "setting": "[12]", "value": 127, "unit": "%"},
      {"measurement": "% activity, 100 µM", "setting": "[13]", "value": 96, "unit": "%"},
      {"measurement": "% activity, 100 µM", "setting": "[14]", "value": 2, "unit": "%"}
    ]},
    {"binder": "B2", "values": [
      {"measurement": "% activity, 100 µM", "setting": "[1]", "value": 31, "unit": "%"},
      {"measurement": "% activity, 100 µM", "setting": "[2]", "value": 69, "unit": "%"},
      {"measurement": "% activity, 100 µM", "setting": "[3]", "value": 34, "unit": "%"},
      {"measurement": "% activity, 100 µM", "setting": "[4]", "value": 85, "unit": "%"},
      {"measurement": "% activity, 100 µM", "setting": "[5]", "value": 18, "unit": "%"},
      {"measurement": "% activity, 100 µM", "setting": "[6]", "value": 17, "unit": "%"},
      {"measurement": "% activity, 100 µM", "setting": "[7]", "value": 141, "unit": "%"},
      {"measurement": "% activity, 100 µM", "setting": "[8]", "value": 120, "unit": "%"},
      {"measurement": "% activity, 100 µM", "setting": "[9]", "value": 91, "unit": "%"},
      {"measurement": "% activity, 100 µM", "setting": "[10]", "value": 91, "unit": "%"},
      {"measurement": "% activity, 100 µM", "setting": "[11]", "value": 33, "unit": "%"},
      {"measurement": "% activity, 100 µM", "setting": "[12]", "value": 129, "unit": "%"},
      {"measurement": "% activity, 100 µM", "setting": "[13]", "value": 91, "unit": "%"},
      {"measurement": "% activity, 100 µM", "setting": "[14]", "value": 1, "unit": "%"}
    ]}
  ]
}
